According to article PMC13371181, “A paracrine-to-autocrine shunt of GREM1 fuels colorectal cancer metastasis via ACVR1C” (Molecular Cancer, 2026):
Entries after “also recorded” stand apart in the source; their conditions may differ.

Key:
[1] = test system: BMP signaling (p-SMAD1/5/9 versus p-SMAD2/3); conditions: sb4; cited from earlier work
Description: Considering that GREM1 is a canonical antagonist of BMP and that BMPRs exert their function through phosphorylation of SMAD1/5/9 (p-SMAD1/5/9), we sought to determine whether GREM1 regulates EMT via BMPR superfamily pathways. […] This definitive exclusion of BMPR–SMAD1/5/9 involvement establish ...

HCT116 and SW480 cells = assay: EMT markers by immunoblotting and RT–qPCR; type: cell-based, human; conditions: GREM1-CM + GREM1 BAb, + SB505124 (1 µM) or + different concentrations of sb4 (sb4: immunoblotting)
Method: (§1) To investigate the effect of secreted GREM1 on CRC cells, an in vitro GREM1 secretion system was established using HEK293 cells. Stably GREM1-expressing cells (pcDNA3.1-GREM1) and empty-vector transfected cells (pcDNA3.1) were cultured in DMEM/F12 medium with 10% FBS until 40% confluence. After complete removal of the normal culture medium, HEK293-GREM1 and HEK293-Vec cells were continuously cultured in DMEM/F12 medium without FBS for 5 days before medium collection. GREM1 or Vector conditioned medium (GREM1-CM/Vec-CM) was then centrifuged at 1000 rpm for 30 min and the supernatant was collected for further study.
(§2) Protein was extracted from the cells with RIPA buffer (Beyotime, P0018) or NP40 lysis buffer (Beyotime, P0013F) and separated by SDS-PAGE, and transferred to polyvinylidene difluoride membranes. […] Band intensity was quantified using Fiji (ImageJ) by grayscale analysis.
(§3) Total RNA was extracted using Trizol reagent (Invitrogen, 15596026). […] The SYBR Green Premix Pro Taq HS qPCR Kit (Accurate Biology, AG11701) was then used to quantify mRNA expression according to the manufacturer’s instructions. All results were calculated using the 2^−ΔΔCt method. […]

ACVR1C-ECD = assay: MST binding of ACVR1C-ECD-Fc to GREM1-His or ACTIVIN B-His; parameters: species or system human
Description: (§4) Expi293F cells were transfected with a pcDNA3.4-ACVR1C-ECD-Fc and pcDNA3.4-ACVR1C-ECD-Fc-double mutant (E85A/T101A) expression vector to produce the target protein, which was subsequently purified using a Protein G column. Briefly, the coding sequence (CDS) of the human ACVR1C extracellular domain (ACVR1C-ECD, NM_145259.3, residues 1–113) fused to an Fc tag was cloned into the pcDNA3.4 vector. Expi293F cells were transfected with this construct, the supernatant was harvested 5 days post transfection.
(§5) MST was carried out on a Monolith NT.115 instrument (NanoTemper Technologies GmbH, MO-L011). To evaluate ACVR1C-ECD or ACVR1C peptide or ACVR1C-ECD-double mutant (E85A/T101A) binding to GREM1-His or ACTIVIN B-His, an increasing concentration of purified ACVR1C-ECD-Fc protein (0–27.5 µM) or ACVR1C peptide (0–2.3 µM) or ACVR1C-ECD-double mutant (0–27.5 µM) was incubated with 50 nM red-fluorescently labeled (NanoTemper Technologies GmbH, MO-L011) GREM1-His protein (R&D, 5190-GR) or ACTIVIN B-His protein (SinoBiological, 10814-H08H). Experiments were carried out in a PBS buffer pH 7.4 using premium capillaries (NanoTemper Technologies GmbH, MO-K025).

TGFβR1 = assay: Co-immunoprecipitation of GREM1 and TGFβR1; type: binding, human; conditions: HCT116 cells, HA-tagged GREM1, anti-HA
Method: (§6) HCT116 cells were transfected with the indicated plasmids and lysed in NP40 lysis buffer (Beyotime, P0013F) supplemented with protease inhibitor cocktail (Thermo, 78446). Lysates were incubated with the indicated Anti-Flag nanobody magarose beads (Ktsm-life, KTSM1338), Anti-HA nanobody magarose beads (Ktsm-life, KTSM1335) or Anti-GFP nanobody magarose beads (Ktsm-life, KTSM1334) overnight at 4 °C. The protein complex was washed four times with the NP40 lysis buffer, eluted with 1×loading buffer (Beyotime, P0015) by boiling for 5 min, followed by mass spectrometry and immunoblotting with the indicated antibodies.
as §2

ACVR1C = assay: Co-immunoprecipitation of GREM1 and ACVR1C; type: binding, human; conditions: HCT116 cells, HA-tagged GREM1, anti-HA
Method: as §6
(§7) Protein was extracted from the cells with RIPA buffer (Beyotime, P0018) or NP40 lysis buffer (Beyotime, P0013F) and separated by SDS-PAGE, and transferred to polyvinylidene difluoride membranes. Primary antibodies against GREM1 (1:1,000, SinoBiological, 50016-R117), ACVR1C (1:1,000, Thermo, PA587475), Flag-tag (1:1,000, CST, 14793), HA-tag (1:1,000, CST, 3724), E-Cadherin (1:1,000, CST, 3195), β-Catenin (1:1,000, CST, 8480), ZEB1 (1:1,000, CST, 3396), Snail (1:1,000, CST, 3879), SMAD2/3 (1:1,000, CST, 8685), p-SMAD2/3 (1:1,000, CST, 8828), SMAD1 (1:1,000, CST, 6944), p-SMAD1/5/9 (1:1,000, CST, 13820), TGFβ (1:1,000, CST, 3709), TGFβR1 (0.3 µg/mL, R&D, AF3025), β-actin (1:5,000, Beyotime, AF0003) and GAPDH (1:5,000, Beyotime, AF0006) were used in this study. Peroxidase-conjugated secondary antibody (1:10,000, Cell Signaling Technology, 7074, 7076) was used and signal was visualized using an enhanced chemiluminescence assay (ECL, Thermo), according to the manufacturer’s protocol. Band intensity was quantified using Fiji (ImageJ) by grayscale analysis.

HCT116 cells = assay: Subcutaneous transplantation of GREM1-CM-pretreated HCT116 cells in nude mice; type: in vivo, human cells in nude mice; conditions: subcutaneous model, HCT116 cells pretreated with GREM1-CM (Figures S8A–C)
Method: For cecum-to-liver metastasis model, 1 × 10^6 MC38-luc cells were resuspended in 50 µL of PBS and injected into the cecum of GD mice or control mice (Grem1-CreER^T2/Rosa-LSL-DTA mice) (n = 6 mice in each group); 5 × 10^6 HCT116-luc cells transduced with lentivirus carrying a pLV or pLV-GREM1 were injected into the cecum of NOG mice (n = 5 mice in each group). SB505124 was administered via intraperitoneal injection at a dose of 10 mg/kg once every other day. The metastases were examined every 5 days post injection using an IVIS Lumina Imaging System. Mice were euthanized between 2 and 6 weeks after injection. […] Mice were euthanized 4 weeks after injection. The tumor tissues were collected for further evaluation.
Figure S8. SB505124 inhibits GREM1-CM-induced EMT and metastasis of CRC in vivo. […] D, RT–qPCR analysis of epithelial marker CDH1 and mesenchymal markers CTNNB1, SNAI1, ZEB1 in subcutaneous tumor tissues from the indicated treatment groups. n = 3 independent experiments. E-G, Representative IF images (E) and quantification (F, G) of E-CAD (green), SNAIL (red), and DAPI (blue) staining in tumors from the indicated groups. […] H, I, Representative IVIS images (H) and quantification (I) of NOG mice that were injected with HCT116-luc cells in the cecum wall and treated with either SB505124 or vehicle via abdominal injection. Liver metastases were imaged and quantified using the IVIS Lumina Imaging System (n = 5 mice per group). For B–D, F, G and I, data are presented as mean ± s.e.m. P values were calculated using one-way ANOVA with Bonferroni multiple-comparison test (B–D, F, and G) or two-tailed Student’s t-test (I).

[2] = test system: ACVR1C–SMAD2/3 pathway in HCT116 and SW480 cells; assay: Immunoblotting p-SMAD2/3 (ACVR1C pathway); type: cell-based, human; conditions: SW480 and HCT116 cells, increasing concentrations of rhGREM1
Method: as §1, §2

[3] = test system: CRC cells (SW480, HCT116, and MC38); assay: GREM1 withdrawal assay, RT–qPCR and immunoblot; type: cell-based, human (SW480, mouse (MC38); conditions: rhGREM1 or rmGrem1 200 ng/mL 24 h, then GREM1-free medium 2 and 4 days
Method: To determine whether tumor cells that have acquired signaling autonomy can sustain GREM1 expression in the absence of external stimulation, we performed a GREM1 withdrawal assay. CRC cells (SW480, HCT116, and MC38) were first pulsed with rhGREM1 or recombinant mouse GREM1 (rmGrem1) for 24 h to initiate the signaling response. The medium containing rhGREM1 or rmGrem1 was then thoroughly removed, replaced with fresh GREM1-free medium, and the cells were cultured for an additional 4 days. […] This persistent, self-sustaining expression supports our conclusion that the initial rhGREM1 or rmGrem1 stimulation triggers a positive feedback loop of GREM1 transcription within CRC cells.
as §2, §3

[4] = test system: TGFβ or TGFβR1 in CRC cells; assay: Immunoblotting TGFβ and TGFβR1 expression; type: cell-based, human; conditions: CRC cells (HCT116, SW480), rhGREM1 gradient
Description: as §7

SW480 and HCT116 cells = assay: Endogenous GREM1 expression by RT–qPCR and immunoblotting; type: cell-based, human; conditions: increasing concentrations of rhGREM1, RT–qPCR (n = 3) and immunoblotting
Description: as §7, §3

[5] = test system: BMPR–SMAD1/5/9 pathway in HCT116 or SW480 cells; assay: Immunoblotting p-SMAD1/5/9 (BMPR pathway); type: cell-based, human; conditions: rhGREM1 gradient
Description: as §7

GREM1 = biological target: T1, GREM1 (Homo sapiens, UniProt O60565); assay: MST binding of ACVR1C-ECD double mutant (E85A/T101A) to GREM1-His; conditions: double mutant 0–27.5 µM vs 50 nM red-labeled GREM1-His, PBS pH 7.4
T1 construct: His; purchased R&D 5190-GR
T1 sequence (O60565 25-184): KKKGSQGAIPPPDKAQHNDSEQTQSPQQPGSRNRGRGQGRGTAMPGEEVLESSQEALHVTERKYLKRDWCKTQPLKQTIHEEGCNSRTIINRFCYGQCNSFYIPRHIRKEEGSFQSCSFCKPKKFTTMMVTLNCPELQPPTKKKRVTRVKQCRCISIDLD
Description: as §4, §5

Molecule: Brc1ccc(CSc2nc3ccccc3o2)cc1 [sb4]
- p-SMAD1/5/9 selectivity [1]: exclusively increases p-SMAD1/5/9 without affecting p-SMAD2/3
- GREM1-CM-induced EMT, effect of treatment (HCT116 and SW480 cells): failed to reverse GREM1-induced EMT

B1: GREM1: GREM1-His protein (R&D, 5190-GR) in MST; HA-tagged GREM1 in co-IP (protein)
chain: KKKGSQGAIPPPDKAQHNDSEQTQSPQQPGSRNRGRGQGRGTAMPGEEVLESSQEALHVTERKYLKRDWCKTQPLKQTIHEEGCNSRTIINRFCYGQCNSFYIPRHIRKEEGSFQSCSFCKPKKFTTMMVTLNCPELQPPTKKKRVTRVKQCRCISIDLD
modifications: left off: HA, end not stated, kept | mCherry, end not stated, kept
notes: GREM1-His protein (R&D, 5190-GR) in MST; HA-tagged GREM1 in co-IP
- affinity for ACVR1C relative to ACTIVIN B, in words (ACVR1C-ECD): superior affinity
- fold higher affinity for ACVR1C-ECD than ACTIVIN B (ACVR1C-ECD; GREM1 Kd versus ACTIVIN B Kd): 12.6 fold
- Kd (ACVR1C-ECD; Monolith NT.115, ACVR1C-ECD-Fc 0–27.5 µM vs 50 nM red-fluorescently labeled His-protein, PBS pH 7.4, premium capillaries, n = 3 independent experiments, mean ± s.e.m.): 67.7 ± 10.3 nM
- co-IP interaction with TGFβR1 (TGFβR1): no such interaction was detected; also recorded: no direct interaction
- co-IP interaction with ACVR1C (ACVR1C): co-immunoprecipitates with ACVR1C; also recorded: interacted with ACVR1C specifically
- effect on subcutaneous tumor proliferation (HCT116 cells): pro-proliferative effect

B2: rhGREM1: recombinant human GREM1 (protein)
chain: KKKGSQGAIPPPDKAQHNDSEQTQSPQQPGSRNRGRGQGRGTAMPGEEVLESSQEALHVTERKYLKRDWCKTQPLKQTIHEEGCNSRTIINRFCYGQCNSFYIPRHIRKEEGSFQSCSFCKPKKFTTMMVTLNCPELQPPTKKKRVTRVKQCRCISIDLD
modifications: red fluorescent label (NanoTemper, MO-L011) in the MST assays; left off: His, end not stated, kept
notes: recombinant human GREM1
- p-SMAD2/3, concentration gradient [2]: dose-dependent increase in p-SMAD2/3
- endogenous GREM1 expression after withdrawal [3]: not only maintained but in some cases further increased even after the withdrawal of exogenous GREM1; also recorded: maintained elevated endogenous GREM1 expression even after withdrawal of exogenous GREM1
- TGFβ or TGFβR1 expression [4]: No changes were observed across all doses tested
- endogenous GREM1 expression (SW480 and HCT116 cells): dose-dependent upregulation of tumor GREM1 expression
- p-SMAD1/5/9 [5]: suppressed the p-SMAD1/5/9

B3: ACVR1C-ECD double mutant (E85A/T101A): human ACVR1C extracellular domain fused to an Fc tag, double mutant E85A/T101A (protein)
chain: ELSPGLKCVCLLCDSSNFTCQTEGACWASVMLTNGKEQVIKSCVSLPELNAQVFCHSSNNVTKTACCFTDFCNNITLHLPAASPNAPKLGPME
modifications: left off: Fc, end not stated, kept
- binding of ACVR1C-ECD double mutant to GREM1 (GREM1): no detectable interaction
